Patent publication US20220010021A1 (Sanofi, published 2022)

T1: human beta-Klotho (KLB) (human, UniProt Q86Z14 53-997)
T1 construct: Bought soluble protein; also called human KLB; ß-Klotho
T1 sequence (looked up): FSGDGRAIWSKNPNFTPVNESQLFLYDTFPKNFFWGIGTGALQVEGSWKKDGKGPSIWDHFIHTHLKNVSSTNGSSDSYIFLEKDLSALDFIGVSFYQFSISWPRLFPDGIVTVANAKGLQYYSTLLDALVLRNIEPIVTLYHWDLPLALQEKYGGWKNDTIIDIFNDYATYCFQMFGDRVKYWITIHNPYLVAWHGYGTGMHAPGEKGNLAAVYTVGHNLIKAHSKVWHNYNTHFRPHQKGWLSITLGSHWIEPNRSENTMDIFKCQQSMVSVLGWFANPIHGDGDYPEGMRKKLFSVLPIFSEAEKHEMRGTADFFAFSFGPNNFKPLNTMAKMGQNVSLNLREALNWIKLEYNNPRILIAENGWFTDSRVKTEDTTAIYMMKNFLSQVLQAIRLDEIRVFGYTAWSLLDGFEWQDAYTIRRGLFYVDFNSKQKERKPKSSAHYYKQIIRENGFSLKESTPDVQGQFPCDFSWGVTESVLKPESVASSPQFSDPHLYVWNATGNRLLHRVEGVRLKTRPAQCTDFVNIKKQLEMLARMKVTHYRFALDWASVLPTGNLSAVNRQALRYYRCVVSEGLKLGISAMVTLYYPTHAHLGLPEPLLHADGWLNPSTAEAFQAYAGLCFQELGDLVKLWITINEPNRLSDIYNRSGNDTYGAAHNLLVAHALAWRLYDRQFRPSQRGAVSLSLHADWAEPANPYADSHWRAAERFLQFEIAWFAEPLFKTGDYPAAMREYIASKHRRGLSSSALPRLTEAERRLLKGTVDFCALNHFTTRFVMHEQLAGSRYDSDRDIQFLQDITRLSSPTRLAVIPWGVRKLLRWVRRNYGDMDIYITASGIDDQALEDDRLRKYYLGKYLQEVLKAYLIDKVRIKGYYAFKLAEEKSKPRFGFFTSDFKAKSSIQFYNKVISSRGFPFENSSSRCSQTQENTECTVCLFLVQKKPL


Key:
human beta-Klotho (KLB) = biological target: T1, human beta-Klotho (KLB); assay: BLI off-rate screen, supernatant;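 note: expression supernatants tested at 25 µg/mL, dissociation followed for 1800 s in D-PBS with 0.1% BSA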
[1] = biological target: cell surface receptor composed of FGFR1c and co-receptor beta-Klotho (KLB) (human, UniProt P11362 22-822; Q86Z14 1-1044); assay: cell-based or functional assay; for Mean E max, Luciferase reporter gene assay: reference of the scale not given here
cell surface receptor composed of FGFR1c and co-receptor beta-Klotho (KLB), sequence (P11362 22-822, chain 1 of 2): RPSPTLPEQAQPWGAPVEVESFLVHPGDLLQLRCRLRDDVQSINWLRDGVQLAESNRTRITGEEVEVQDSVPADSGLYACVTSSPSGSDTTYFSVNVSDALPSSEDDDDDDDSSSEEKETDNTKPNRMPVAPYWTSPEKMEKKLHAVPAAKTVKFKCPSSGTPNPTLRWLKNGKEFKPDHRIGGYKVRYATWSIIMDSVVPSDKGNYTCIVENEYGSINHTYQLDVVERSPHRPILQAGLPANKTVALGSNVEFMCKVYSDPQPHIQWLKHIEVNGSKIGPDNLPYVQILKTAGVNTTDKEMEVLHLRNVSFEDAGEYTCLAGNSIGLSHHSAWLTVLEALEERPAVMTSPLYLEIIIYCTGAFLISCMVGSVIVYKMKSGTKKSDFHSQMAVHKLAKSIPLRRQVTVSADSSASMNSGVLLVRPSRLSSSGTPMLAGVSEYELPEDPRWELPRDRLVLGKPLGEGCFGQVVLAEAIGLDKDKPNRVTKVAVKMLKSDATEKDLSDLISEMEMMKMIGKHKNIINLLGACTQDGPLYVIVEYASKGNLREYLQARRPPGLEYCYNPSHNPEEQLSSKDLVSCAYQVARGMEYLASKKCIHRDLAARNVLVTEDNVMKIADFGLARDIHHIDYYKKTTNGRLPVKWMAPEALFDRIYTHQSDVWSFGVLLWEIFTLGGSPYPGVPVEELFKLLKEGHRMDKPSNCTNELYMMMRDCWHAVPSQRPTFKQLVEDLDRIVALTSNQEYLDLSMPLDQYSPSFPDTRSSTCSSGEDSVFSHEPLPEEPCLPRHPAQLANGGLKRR
cell surface receptor composed of FGFR1c and co-receptor beta-Klotho (KLB), sequence (Q86Z14 whole entry, chain 2 of 2): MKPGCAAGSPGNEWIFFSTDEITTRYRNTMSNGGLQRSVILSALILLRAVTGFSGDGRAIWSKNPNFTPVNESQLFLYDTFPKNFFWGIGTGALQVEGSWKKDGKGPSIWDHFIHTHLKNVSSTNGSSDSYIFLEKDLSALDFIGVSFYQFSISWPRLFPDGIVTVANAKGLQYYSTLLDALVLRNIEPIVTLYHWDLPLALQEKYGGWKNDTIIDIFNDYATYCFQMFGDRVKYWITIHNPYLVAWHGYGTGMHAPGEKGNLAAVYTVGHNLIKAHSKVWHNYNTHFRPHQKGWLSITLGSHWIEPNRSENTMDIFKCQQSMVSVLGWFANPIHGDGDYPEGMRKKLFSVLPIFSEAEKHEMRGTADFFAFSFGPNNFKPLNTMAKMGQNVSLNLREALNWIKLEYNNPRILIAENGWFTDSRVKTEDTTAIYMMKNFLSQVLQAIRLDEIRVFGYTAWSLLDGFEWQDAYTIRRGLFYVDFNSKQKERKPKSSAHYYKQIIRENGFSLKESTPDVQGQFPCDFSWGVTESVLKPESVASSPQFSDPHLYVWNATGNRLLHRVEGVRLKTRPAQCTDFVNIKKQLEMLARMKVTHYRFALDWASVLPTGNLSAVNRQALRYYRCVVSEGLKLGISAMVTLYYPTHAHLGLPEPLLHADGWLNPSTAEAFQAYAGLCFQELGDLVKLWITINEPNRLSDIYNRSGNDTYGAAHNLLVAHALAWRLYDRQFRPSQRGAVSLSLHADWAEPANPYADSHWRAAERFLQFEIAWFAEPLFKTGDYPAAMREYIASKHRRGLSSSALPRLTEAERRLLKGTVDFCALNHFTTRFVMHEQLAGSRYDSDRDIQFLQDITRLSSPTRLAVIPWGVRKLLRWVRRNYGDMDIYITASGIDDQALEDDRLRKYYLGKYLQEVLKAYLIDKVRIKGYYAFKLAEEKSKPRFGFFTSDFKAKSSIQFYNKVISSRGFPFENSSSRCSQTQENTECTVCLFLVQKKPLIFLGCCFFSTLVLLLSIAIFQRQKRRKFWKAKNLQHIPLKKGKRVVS

Row | Binder | koff (human beta-Klotho (KLB)) | Mean E max, Luciferase reporter gene assay [1] | Mean EC50, Luciferase reporter gene assay [1]
1 | 16H7 light chain variant I27Q (antibody, human IgG4 S228P, lambda, V domains shown) VH: not shown VL: SYVLTQPPSVSVAPGQTARITCGGNNQGSESVHWYQQKPGQAPVLVVYDDSDRPSGIPERFSGSNSGNTATLTISRVEAGDEADYYCQVWDGNSDHVVFGGGTKLTVLG | 6.1e-05 s⁻¹ | 103% | 0.144 nM
2 | 16H7 light chain variant S29A (antibody, V domains shown, copies: 2 + 2) VH: not shown VL: SYVLTQPPSVSVAPGQTARITCGGNNIGAESVHWYQQKPGQAPVLVVYDDSDRPSGIPERFSGSNSGNTATLTISRVEAGDEADYYCQVWDGNSDHVVFGGGTKLTVLG | 1e-05 s⁻¹ | 100% | 0.153 nM
3 | 16H7 light chain variant I27R (antibody, V domains shown, copies: 2 + 2) VH: not shown VL: SYVLTQPPSVSVAPGQTARITCGGNNRGSESVHWYQQKPGQAPVLVVYDDSDRPSGIPERFSGSNSGNTATLTISRVEAGDEADYYCQVWDGNSDHVVFGGGTKLTVLG | 2.2e-05 s⁻¹ | 105% | 0.131 nM
4 | 16H7 light chain variant S29D (antibody, human IgG4 S228P, lambda, V domains shown) VH: not shown VL: SYVLTQPPSVSVAPGQTARITCGGNNIGDESVHWYQQKPGQAPVLVVYDDSDRPSGIPERFSGSNSGNTATLTISRVEAGDEADYYCQVWDGNSDHVVFGGGTKLTVLG | 4.5e-05 s⁻¹ | 109% | 0.136 nM
5 | 16H7 light chain variant S29G (antibody, V domains shown, copies: 2 + 2) VH: not shown VL: SYVLTQPPSVSVAPGQTARITCGGNNIGGESVHWYQQKPGQAPVLVVYDDSDRPSGIPERFSGSNSGNTATLTISRVEAGDEADYYCQVWDGNSDHVVFGGGTKLTVLG | 3.5e-05 s⁻¹ | 98% | 0.09 nM
6 | 16H7 light chain variant S31A (antibody, V domains shown, copies: 2 + 2) VH: not shown VL: SYVLTQPPSVSVAPGQTARITCGGNNIGSEAVHWYQQKPGQAPVLVVYDDSDRPSGIPERFSGSNSGNTATLTISRVEAGDEADYYCQVWDGNSDHVVFGGGTKLTVLG | 5.8e-05 s⁻¹ | 100% | 0.099 nM
7 | 16H7 light chain variant S29L (antibody, V domains shown, copies: 2 + 2) VH: not shown VL: SYVLTQPPSVSVAPGQTARITCGGNNIGLESVHWYQQKPGQAPVLVVYDDSDRPSGIPERFSGSNSGNTATLTISRVEAGDEADYYCQVWDGNSDHVVFGGGTKLTVLG | 1.1e-05 s⁻¹ | 100% | 0.108 nM
8 | 16H7 light chain variant S29C (antibody, V domains shown, copies: 2 + 2) VH: not shown VL: SYVLTQPPSVSVAPGQTARITCGGNNIGCESVHWYQQKPGQAPVLVVYDDSDRPSGIPERFSGSNSGNTATLTISRVEAGDEADYYCQVWDGNSDHVVFGGGTKLTVLG | 5e-05 s⁻¹ | 108% | 0.172 nM
9 | 16H7 light chain variant I27V (antibody, V domains shown, copies: 2 + 2) VH: not shown VL: SYVLTQPPSVSVAPGQTARITCGGNNVGSESVHWYQQKPGQAPVLVVYDDSDRPSGIPERFSGSNSGNTATLTISRVEAGDEADYYCQVWDGNSDHVVFGGGTKLTVLG | 3.3e-05 s⁻¹ | 104% | 0.136 nM
10 | 16H7 light chain variant S29M (antibody, human IgG4 S228P, lambda, V domains shown) VH: not shown VL: SYVLTQPPSVSVAPGQTARITCGGNNIGMESVHWYQQKPGQAPVLVVYDDSDRPSGIPERFSGSNSGNTATLTISRVEAGDEADYYCQVWDGNSDHVVFGGGTKLTVLG | 2.3e-05 s⁻¹ | 106% | 0.133 nM
11 | 16H7 light chain variant S31C (antibody, human IgG4 S228P, lambda, V domains shown) VH: not shown VL: SYVLTQPPSVSVAPGQTARITCGGNNIGSECVHWYQQKPGQAPVLVVYDDSDRPSGIPERFSGSNSGNTATLTISRVEAGDEADYYCQVWDGNSDHVVFGGGTKLTVLG | 0.00017 s⁻¹ | 100% | 0.128 nM
12 | 16H7 light chain variant S29T (antibody, human IgG4 S228P, lambda, V domains shown) VH: not shown VL: SYVLTQPPSVSVAPGQTARITCGGNNIGTESVHWYQQKPGQAPVLVVYDDSDRPSGIPERFSGSNSGNTATLTISRVEAGDEADYYCQVWDGNSDHVVFGGGTKLTVLG | 2.2e-05 s⁻¹ | 102% | 0.096 nM
13 | 16H7 light chain variant S29P (antibody, human IgG4 S228P, lambda, V domains shown) VH: not shown VL: SYVLTQPPSVSVAPGQTARITCGGNNIGPESVHWYQQKPGQAPVLVVYDDSDRPSGIPERFSGSNSGNTATLTISRVEAGDEADYYCQVWDGNSDHVVFGGGTKLTVLG | 5.2e-05 s⁻¹ | 105% | 0.174 nM
14 | 16H7 light chain variant I27W (antibody, human IgG4 S228P, lambda, V domains shown) VH: not shown VL: SYVLTQPPSVSVAPGQTARITCGGNNWGSESVHWYQQKPGQAPVLVVYDDSDRPSGIPERFSGSNSGNTATLTISRVEAGDEADYYCQVWDGNSDHVVFGGGTKLTVLG | 6.5e-05 s⁻¹ | 104% | 0.156 nM
15 | 16H7 light chain variant S29K (antibody, human IgG4 S228P, lambda, V domains shown) VH: not shown VL: SYVLTQPPSVSVAPGQTARITCGGNNIGKESVHWYQQKPGQAPVLVVYDDSDRPSGIPERFSGSNSGNTATLTISRVEAGDEADYYCQVWDGNSDHVVFGGGTKLTVLG | 1.5e-05 s⁻¹ | 96% | 0.146 nM
16 | 16H7 light chain variant S29V (antibody, human IgG4 S228P, lambda, V domains shown) VH: not shown VL: SYVLTQPPSVSVAPGQTARITCGGNNIGVESVHWYQQKPGQAPVLVVYDDSDRPSGIPERFSGSNSGNTATLTISRVEAGDEADYYCQVWDGNSDHVVFGGGTKLTVLG | 1.3e-05 s⁻¹ | 107% | 0.109 nM
17 | 16H7 light chain variant S29R (antibody, V domains shown, copies: 2 + 2) VH: not shown VL: SYVLTQPPSVSVAPGQTARITCGGNNIGRESVHWYQQKPGQAPVLVVYDDSDRPSGIPERFSGSNSGNTATLTISRVEAGDEADYYCQVWDGNSDHVVFGGGTKLTVLG | 6.7e-06 s⁻¹ | 105% | 0.184 nM
18 | 16H7 light chain variant S29H (antibody, V domains shown, copies: 2 + 2) VH: not shown VL: SYVLTQPPSVSVAPGQTARITCGGNNIGHESVHWYQQKPGQAPVLVVYDDSDRPSGIPERFSGSNSGNTATLTISRVEAGDEADYYCQVWDGNSDHVVFGGGTKLTVLG | 4.9e-05 s⁻¹ | 100% | 0.119 nM
19 | 16H7 light chain variant I27T (antibody, V domains shown, copies: 2 + 2) VH: not shown VL: SYVLTQPPSVSVAPGQTARITCGGNNTGSESVHWYQQKPGQAPVLVVYDDSDRPSGIPERFSGSNSGNTATLTISRVEAGDEADYYCQVWDGNSDHVVFGGGTKLTVLG | 3.3e-05 s⁻¹ | 97% | 0.152 nM
20 | 16H7 light chain variant I27Y (antibody, human IgG4 S228P, lambda, V domains shown) VH: not shown VL: SYVLTQPPSVSVAPGQTARITCGGNNYGSESVHWYQQKPGQAPVLVVYDDSDRPSGIPERFSGSNSGNTATLTISRVEAGDEADYYCQVWDGNSDHVVFGGGTKLTVLG | 4.2e-05 s⁻¹ | 96% | 0.116 nM
21 | 16H7 light chain variant S29Q (antibody, human IgG4 S228P, lambda, V domains shown) VH: not shown VL: SYVLTQPPSVSVAPGQTARITCGGNNIGQESVHWYQQKPGQAPVLVVYDDSDRPSGIPERFSGSNSGNTATLTISRVEAGDEADYYCQVWDGNSDHVVFGGGTKLTVLG | 2.2e-05 s⁻¹ | 102% | 0.114 nM
22 | 16H7 light chain variant S29F (antibody, V domains shown, copies: 2 + 2) VH: not shown VL: SYVLTQPPSVSVAPGQTARITCGGNNIGFESVHWYQQKPGQAPVLVVYDDSDRPSGIPERFSGSNSGNTATLTISRVEAGDEADYYCQVWDGNSDHVVFGGGTKLTVLG | 1.9e-05 s⁻¹ | 116% | 0.19 nM
23 | 16H7 light chain variant S29I (antibody, human IgG4 S228P, lambda, V domains shown) VH: not shown VL: SYVLTQPPSVSVAPGQTARITCGGNNIGIESVHWYQQKPGQAPVLVVYDDSDRPSGIPERFSGSNSGNTATLTISRVEAGDEADYYCQVWDGNSDHVVFGGGTKLTVLG | 3e-05 s⁻¹ | 107% | 0.14 nM
24 | 16H7 light chain variant S29E (antibody, human IgG4 S228P, lambda, V domains shown) VH: not shown VL: SYVLTQPPSVSVAPGQTARITCGGNNIGEESVHWYQQKPGQAPVLVVYDDSDRPSGIPERFSGSNSGNTATLTISRVEAGDEADYYCQVWDGNSDHVVFGGGTKLTVLG | 2.3e-05 s⁻¹ | 114% | 0.102 nM
